# Measured values as given in patent US20250066422A1 (published 2025).
# Molecular target: T1, HLA-A*0201 (human)
# T1 construct: MHC monomer first loaded with a UV-sensitive peptide that is cleaved and exchanged for the test peptide; captured on streptavidin; also called peptide-receptive MHC molecules
# Assay: UV-ligand exchange, streptavidin/anti-b2m sandwich ELISA
# Description: Candidate peptides for the vaccines according to the present invention were further tested for immunogenicity by in vitro priming assays. The individual peptide-MHC complexes required for these assays were produced by UV-ligand exchange, where a UV-sensitive peptide is cleaved upon UV-irradiation, and exchanged with the peptide of interest as analyzed. Only peptide candidates that can effectively bind and stabilize the peptide-receptive MHC molecules prevent dissociation of the MHC complexes. To determine the yield of the exchange reaction, an ELISA was performed based on the detection of the light chain (β2m) of stabilized MHC complexes.
# 96 well MAXISorp plates (NUNC) were coated over night with 2ug/ml streptavidin in PBS at room temperature, washed 4× and blocked for 30 min at 37° C. in 2% BSA containing blocking buffer. Refolded HLAA*0201/MLA-001 monomers served as standards, covering the range of 8-500 ng/ml. Peptide-MHC monomers of the UV-exchange reaction were diluted 100 fold in blocking buffer. Samples were incubated for 1 h at 37° C., washed four times, incubated with 2ug/ml HRP conjugated anti-β2m for 1 h at 37° C., washed again and detected with TMB solution that is stopped with […]. Absorption was measured at 450 nm.
row,Binder,Average exchange yield in % [%]
1,ALYGRLEVV (synthetic peptide from ANKS1A) [ANKS1A-001],78
2,KLSWDLIYL (synthetic peptide from CERCAM) [CERC-001],62
3,KLFGEKTYL (synthetic peptide from SERPINB3) [SERPINB3-001],47
4,SLIDADPYL (synthetic peptide from CCNA2) [CCNA2-001],54
5,NLLAEIHGV (synthetic peptide from DPYSL4) [DPYSL4-001],77
6,TVAEVIQSV (synthetic peptide from KIF26B) [KIF26B-001],68
7,SLVAVELEKV (synthetic peptide from COG4) [COG4-001],57
8,YLAPFLRNV (synthetic peptide from CNOT1) [CNOT1-001],57
9,VLLPVEVATHYL (synthetic peptide from SLC34A2) [SLC34A2-001],51
10,KIYNEFISV (synthetic peptide from RGS4) [RGS4-001],49
11,ALVDHTPYL (synthetic peptide from VCAN) [VCAN-002],49
12,ILQDRLNQV (synthetic peptide from CDC6) [CDC6-001],48
13,SLLAQNTSWLL (synthetic peptide from THY1) [THY1-001],65
14,VLSVVEVTL (synthetic peptide from RNF213) [RNF213-001],84
15,"FQYDHEAFL (synthetic peptide from RCN1, RCN3) [RCN1-001]",75
16,"VLAPLFVYL (synthetic peptide from FZD1, FZD2, FZD7) [FZD-001]",52
17,KLLEYIEEI (synthetic peptide from HMMR) [HMMR-001],49
18,ALASVIKEL (synthetic peptide from IFT81) [IFT81-001],57
19,VVDKTLLLV (synthetic peptide from C11orf24) [C11orf24-001],47
20,YLPHAPPFA (synthetic peptide from JUNB) [JUNB-001],51
21,GLYPDAFAPV (synthetic peptide from ELANE) [ELANE-001],62
22,TLISRLPAV (synthetic peptide from RCC1) [RCC1-001],77
23,ILFPDIIARA (synthetic peptide from MAGEF1) [MAGEF1-001],83

row,Binder,Average exchange yield in % [%]
1,FLIPIYHQV (synthetic peptide from ACACA) [ACACA-001],61
2,AILDTLYEV (synthetic peptide from PLEKHA8) [PLEKHA8-001],47
3,GLAEDIDKGEV (synthetic peptide from EEF2) [EEF2-002],31
4,"SILTIEDGIFEV (synthetic peptide from HSPA2, HSPA8) [HSP-002]",47
5,"SLHFLILYV (synthetic peptide from ATP2A1, ATP2A2) [ATP-001]",19
6,ALANQKLYSV (synthetic peptide from MDN1) [MDN1-001],67
7,TLTNIIHNL (synthetic peptide from ORMDL1) [ORMDL1-002],61
8,ILVSWLPRL (synthetic peptide from NET1) [NET1-001],82
9,SLAGDVALQQL (synthetic peptide from NCAPD2) [NCAPD2-001],76
10,SLWGGDVVL (synthetic peptide from VPS13B) [VPS13B-001],63
11,AMLAVLHTV (synthetic peptide from C12orf44) [C12orf44-001],34
12,FLHHLEIEL (synthetic peptide from ITGA11) [ITGA11-001],53
13,ALYDSVILL (synthetic peptide from DIO2) [DIO2-001],50
14,SISDVIAQV (synthetic peptide from ANKH) [ANKH-001],52
15,KVLEILHRV (synthetic peptide from HERC4) [HERC4-001],61
16,TVIGFLLPFA (synthetic peptide from P2RY6) [P2RY6-001],91
17,ALWEKNTHL (synthetic peptide from CEP250) [CEP250-002],70
18,AMFENFVSV (synthetic peptide from NCBP1) [NCBP1-001],65
19,HLLEDIAHV (synthetic peptide from NEFH) [NEFH-001],50
20,ILMGTELTQV (synthetic peptide from OLFM1) [OLFM1-001],48
21,AMATESILHFA (synthetic peptide from PI4KA) [PI4KA-001],51
22,SLLESNKDLLL (synthetic peptide from SLC3A2) [SLC3A2-001],56
23,"SLYDNQITTV (synthetic peptide from SLIT1, SLIT2) [SLI-001]",47

row,Binder,Average exchange yield in % [%]
1,RVLPPSALQSV (synthetic peptide from AURKB) [AURKB-001],54
2,SLAPAGVIRV (synthetic peptide from TLX3) [TLX3-001],70
3,KIQEMQHFL (synthetic peptide from MMP12) [MMP12-003],57
4,YVYQNNIYL (synthetic peptide from FAP) [FAP-003],31
5,KIQEILTQV (synthetic peptide from IGF2BP3) [IGF2BP3-001],46
6,NLIEKSIYL (synthetic peptide from DST) [DST-001],50
7,TLSSIKVEV (synthetic peptide from MXRA5) [MXRA5-001],57
8,AIDGNNHEV (synthetic peptide from GFPT2) [GFPT2-001],43
9,ILFEINPKL (synthetic peptide from ABCA13) [ABCA13-001],93
10,KLDETNNTL (synthetic peptide from DST) [DST-002],59
11,GLTDNIHLV (synthetic peptide from MXRA5) [MXRA5-002],56
12,KIVDFSYSV (synthetic peptide from BUB1B) [BUB1B-001],59
13,"SMSGYDQVL (synthetic peptide from HNRNPH1, HNRNPH2) [HNRNPH-001]",26
14,AMSSKFFLV (synthetic peptide from WNT5A) [WNT5A-001],37
15,KLAVALLAA (synthetic peptide from IL8) [IL8-001],41
16,SLLPVDIRQYL (synthetic peptide from STAT2) [STAT2-001],69
17,KLLTEVHAA (synthetic peptide from ADAM8) [ADAM8-001],67
18,FLLDGSANV (synthetic peptide from COL6A3) [COL6A3-002],81
19,TLYPHTSQV (synthetic peptide from VCAN) [VCAN-001],41
20,SLIEDLILL (synthetic peptide from SMYD3) [SMYD3-001],50
21,ALDENLHQL (synthetic peptide from ABCA13) [ABCA13-002],36
22,GLIEIISNA (synthetic peptide from SNRNP200) [SNRNP20-001],54
